{"source": "IntAct's records for PubMed 31515488", "parents": {"B1": {"name": "Splicing factor 45 (Homo sapiens), Q96I25 (parent)", "chain": "MSLYDDLGVETSDSKTEGWSKNFKLLQSQLQVKKAALTQAKSQRTKQSTVLAPVIDLKRGGSSDDRQIVDTPPHVAAGLKDPVPSGFSAGEVLIPLADEYDPMFPNDYEKVVKRQREERQRQRELERQKEIEEREKRRKDRHEASGFARRPDPDSDEDEDYERERRKRSMGGAAIAPPTSLVEKDKELPRDFPYEEDSRPRSQSSKAAIPPPVYEEQDRPRSPTGPSNSFLANMGGTVAHKIMQKYGFREGQGLGKHEQGLSTALSVEKTSKRGGKIIVGDATEKDASKKSDSNPLTEILKCPTKVVLLRNMVGAGEVDEDLEVETKEECEKYGKVGKCVIFEIPGAPDDEAVRIFLEFERVESAIKAVVDLNGRYFGGRVVKACFYNLDKFRVLDLAEQV", "partner": "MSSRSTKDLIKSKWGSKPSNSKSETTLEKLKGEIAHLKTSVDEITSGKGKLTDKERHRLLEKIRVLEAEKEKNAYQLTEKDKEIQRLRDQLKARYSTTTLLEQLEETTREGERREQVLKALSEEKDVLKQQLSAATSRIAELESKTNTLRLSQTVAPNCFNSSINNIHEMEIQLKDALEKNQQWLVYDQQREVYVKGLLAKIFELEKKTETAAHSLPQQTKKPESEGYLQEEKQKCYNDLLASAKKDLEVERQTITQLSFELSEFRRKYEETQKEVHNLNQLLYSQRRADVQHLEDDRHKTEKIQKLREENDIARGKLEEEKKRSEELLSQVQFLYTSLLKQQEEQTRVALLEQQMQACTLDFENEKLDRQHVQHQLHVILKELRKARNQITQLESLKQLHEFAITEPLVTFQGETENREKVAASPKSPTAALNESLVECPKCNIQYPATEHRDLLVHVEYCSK"}, "B2": {"name": "Lymphotoxin-alpha (Homo sapiens), P01374 (parent)", "chain": "MTPPERLFLPRVCGTTLHLLLLGLLLVLLPGAQGLPGVGLTPSAAQTARQHPKMHLAHSTLKPAAHLIGDPSKQNSLLWRANTDRAFLQDGFSLSNNSLLVPTSGIYFVYSQVVFSGKAYSPKATSSPLYLAHEVQLFSSQYPFHVPLLSSQKMVYPGLQEPWLHSMYHGAAFQLTQGDQLSTHTDGIPHLVLSPSTVFFGAFAL", "partner": "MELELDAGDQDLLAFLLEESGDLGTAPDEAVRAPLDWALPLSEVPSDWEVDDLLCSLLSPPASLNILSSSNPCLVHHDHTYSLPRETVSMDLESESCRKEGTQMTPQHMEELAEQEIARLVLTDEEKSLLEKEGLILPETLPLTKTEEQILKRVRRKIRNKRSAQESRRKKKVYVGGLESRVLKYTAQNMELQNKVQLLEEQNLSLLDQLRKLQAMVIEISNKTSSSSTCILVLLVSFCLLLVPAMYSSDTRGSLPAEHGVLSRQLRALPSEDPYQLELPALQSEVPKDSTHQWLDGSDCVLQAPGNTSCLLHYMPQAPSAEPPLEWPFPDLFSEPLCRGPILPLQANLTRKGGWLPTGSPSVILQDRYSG"}, "B3": {"name": "Isoform 1 of EF-hand domain-containing family member C2 (Homo sapiens), Q5JST6-1 (parent)", "chain": "MALPLLPGNSFNRNVGKEKFHKSQHWGFCNNVMMLVSDEKPGIGGEPLLGQKIKPKCSIYPKGDGSDVPSWVAFDKQVLSFDAYLEEEVLDKSQTNYRIRYYKIYFYPEDDTIQVNEPEVKNSGLLQGTSIRRHRITLPPPDEDQFYTVYHFNVGTEVVFYGRTFKIYDCDAFTRNFLRKIGVKVNPPVQCPEDPYMKIRREVVEHVEPLRPYESLDTLKQFLQYHGKILCFFCLWDDSVSMFGDRRELILHYFLCDDTIEIKELLPHSSGRDALKMFLRRSKLPKNCPPRVYQPGQITDRAVLNSYGDFIKNQADGYLFDRYKLGKVDQEFYKDSDLSLGVTINVWGRKVLLYDCDEFTKSYYKSKYGIENFTSVSCKPPSPPPKIERKFPPYNGFGSEEDSLRNCIDLKPTPHRRNFKKFMEKDSYGSKSNILRFFAKLVTDKCVDLDRMFVISYYLGDDTISVFEPIERNSGIAGGMFLKRSRVKKPGQEVFKSELSEYIKAEELYIGVTVNVNGYLFRLLNADEYTLNYMEQNTDKYPFSNLKLALQKLKQEEGKSRELKQVFKAADSKHTNMVDYNTFRDILMSLTVGNLAEQEFVTIARHYRVPEGTCSDMDFLIALAHEKFKKNMFENFDTFIYSCVYEDREKKNVLPTKDIKRLCKSSRLPLSDDLLESLLSRFEDSEKQIDYKSFFSALNWRKNPVPELQPASYLKERCEDVWLGMPSPIPAKYIDYWTFLKDAFGLEEE"}, "B4": {"name": "Glutathione S-transferase Mu 3 (Homo sapiens), P21266 (parent)", "chain": "MSCESSMVLGYWDIRGLAHAIRLLLEFTDTSYEEKRYTCGEAPDYDRSQWLDVKFKLDLDFPNLPYLLDGKNKITQSNAILRYIARKHNMCGETEEEKIRVDIIENQVMDFRTQLIRLCYSSDHEKLKPQYLEELPGQLKQFSMFLGKFSWFAGEKLTFVDFLTYDILDQNRIFDPKCLDEFPNLKAFMCRFEALEKIAAYLQSDQFCKMPINNKMAQWGNKPVC", "partner": "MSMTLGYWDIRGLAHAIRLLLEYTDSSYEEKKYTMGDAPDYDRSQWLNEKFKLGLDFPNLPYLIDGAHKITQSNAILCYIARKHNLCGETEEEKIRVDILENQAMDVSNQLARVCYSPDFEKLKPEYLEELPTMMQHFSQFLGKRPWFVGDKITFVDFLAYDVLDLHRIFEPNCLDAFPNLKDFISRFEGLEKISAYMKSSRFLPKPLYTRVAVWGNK"}}}
{"variants_of": "B1", "conditions": "with cep55_human CEP55, Q53EZ4"}
{"variant": "T224I", "effect of a mutation on the interaction": "with no effect"}
{"variants_of": "B2", "conditions": "with creb3_human CREB3, O43889"}
{"variant": "T60N", "effect of a mutation on the interaction": "with no effect"}
{"variants_of": "B3", "conditions": "with ercc3_human ERCC3, P19447"}
{"variant": "V376I", "effect of a mutation on the interaction": "with no effect"}
{"variants_of": "B3", "conditions": "with ptk6_human PTK6, Q13882"}
{"variant": "V376I", "effect of a mutation on the interaction": "with no effect"}
{"variants_of": "B3", "conditions": "with mk09_human MAPK9, P45984"}
{"variant": "V376I", "effect of a mutation on the interaction": "with no effect"}
{"variants_of": "B3", "conditions": "with plod3_human PLOD3, O60568"}
{"variant": "V376I", "effect of a mutation on the interaction": "with no effect"}
{"variants_of": "B3", "conditions": "with plod3_human PLOD3, O60568", "remark": "another data set of the same source"}
{"variant": "N31S", "effect of a mutation on the interaction": "disrupting interaction strength"}
{"variant": "E507Q", "effect of a mutation on the interaction": "disrupting interaction strength"}
{"variants_of": "B3", "conditions": "with ptk6_human PTK6, Q13882", "remark": "another data set of the same source"}
{"variant": "N31S", "effect of a mutation on the interaction": "disrupting interaction strength"}
{"variants_of": "B3", "conditions": "with ercc3_human ERCC3, P19447", "remark": "another data set of the same source"}
{"variant": "N31S", "effect of a mutation on the interaction": "disrupting interaction strength"}
{"variants_of": "B3", "conditions": "with mk09_human MAPK9, P45984", "remark": "another data set of the same source"}
{"variant": "N31S", "effect of a mutation on the interaction": "disrupting interaction strength"}
{"variants_of": "B4", "conditions": "with gstm4_human GSTM4, Q03013"}
{"variant": "R86H", "effect of a mutation on the interaction": "disrupting interaction strength"}
{"variant": "L23P", "effect of a mutation on the interaction": "disrupting interaction strength"}
